Source: article PMC7327492 (2020)

B1: His-tagged 2x(LxxIxE) B56 inhibitor (designed binder)
chain: TGSTGSTGSTGSTGSLPRSSTLPTIHEEEELSLCTGSTGSTGSTGSTGSLPRSSTLPTIHEEEELSLC
B2: His-tagged 4x(LxxIxE) B56 inhibitor (designed binder)
chain: TGSTGSTGSTGSTGSLPRSSTLPTIHEEEELSLCTGSTGSTGSTGSTGSLPRSSTLPTIHEEEELSLCTGSTGSTGSTGSTGSLPRSSTLPTIHEEEELSLCTGSTGSTGSTGSTGSLPRSSTLPTIHEEEELSLC

target: Recombinant B56α (UniProt Q15172 1-486); test: ITC
Sequence (Q15172 whole entry): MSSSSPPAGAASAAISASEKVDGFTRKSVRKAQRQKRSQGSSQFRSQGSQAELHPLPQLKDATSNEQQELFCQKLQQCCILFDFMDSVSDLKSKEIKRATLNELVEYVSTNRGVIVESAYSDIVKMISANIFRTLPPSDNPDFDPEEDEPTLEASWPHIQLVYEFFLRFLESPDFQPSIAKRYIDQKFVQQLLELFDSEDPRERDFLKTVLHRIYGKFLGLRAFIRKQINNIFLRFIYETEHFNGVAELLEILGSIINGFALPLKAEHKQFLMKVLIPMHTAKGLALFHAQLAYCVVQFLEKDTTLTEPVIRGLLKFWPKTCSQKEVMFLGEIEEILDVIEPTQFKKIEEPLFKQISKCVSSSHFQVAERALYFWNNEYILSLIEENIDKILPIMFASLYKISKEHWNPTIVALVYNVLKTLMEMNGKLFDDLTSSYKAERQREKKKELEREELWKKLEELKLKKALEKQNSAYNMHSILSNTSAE

In order of falling Kd:
1. TGSTGSTGSTGSTGSLPRSSTLPTIHEEEELSLC (designed binder) [His-tagged 1x(LxxIxE) B56 inhibitor]  1300 nM
2. B1  200 nM
3. B2  100 nM
